{
  "source": "paper doi:10.1101/695155",
  "target": "p35 (UniProt Q15078)",
  "sequence (Q15078 whole entry)": "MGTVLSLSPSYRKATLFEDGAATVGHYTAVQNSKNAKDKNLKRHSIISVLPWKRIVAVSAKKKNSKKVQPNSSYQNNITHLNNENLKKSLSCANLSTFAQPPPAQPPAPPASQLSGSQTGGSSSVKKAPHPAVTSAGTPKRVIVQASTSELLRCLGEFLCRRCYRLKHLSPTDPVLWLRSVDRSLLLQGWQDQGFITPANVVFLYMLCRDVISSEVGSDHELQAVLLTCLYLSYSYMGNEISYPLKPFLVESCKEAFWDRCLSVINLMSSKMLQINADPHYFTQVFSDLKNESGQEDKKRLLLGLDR",
  "assay": "co-IP",
  "data": [
    {"substance": "HA-CDK5-DN (D145N) (from UniProt Q00535 1-292) (enzyme)", "values": [
      {"measurement": "cdk5 recovered by anti-p35 IP with nestin co-expressed, normalised to no nestin", "value": 1.12}
    ]}
  ]
}
